Values joined by “and” are separate entries in the source; they are usually repeats but may differ in a detail not shown here. Identical values can stand only once.
Columns and labels:
[1] = biological target: T1, Activin A (ligand of the Activin 2B Receptor/SMAD reporter assay) (UniProt P08476 311-426); test: cell-based or functional assay
T1 sequence (looked up): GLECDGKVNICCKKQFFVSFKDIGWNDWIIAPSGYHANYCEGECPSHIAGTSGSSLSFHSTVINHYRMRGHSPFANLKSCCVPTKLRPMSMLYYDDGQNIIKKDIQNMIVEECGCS

Human GDF8 = Human GDF8 (human, UniProt O14793 267-375); test: Octet BLI, IgG, avid
BMP10 = biological target: T2, BMP10 (UniProt O95393 317-424); test: Octet BLI, IgG, avid
T2 sequence (looked up): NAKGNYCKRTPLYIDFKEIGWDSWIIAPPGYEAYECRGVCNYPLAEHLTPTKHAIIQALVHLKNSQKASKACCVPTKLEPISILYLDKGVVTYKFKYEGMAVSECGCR

GDF15 Fc = biological target: T3, GDF15 Fc (UniProt Q99988 197-308, limits assumed); test: Octet BLI, IgG, avid
T3 construct: not shown: Fc part
T3 sequence (looked up): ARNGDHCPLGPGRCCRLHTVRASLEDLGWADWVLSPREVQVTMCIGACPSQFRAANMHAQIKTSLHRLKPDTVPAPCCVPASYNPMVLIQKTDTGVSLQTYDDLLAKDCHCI

Activin B [2] = biological target: T4, Activin B (UniProt P09529 293-407); test: Octet BLI, IgG, avid
T4 sequence (looked up): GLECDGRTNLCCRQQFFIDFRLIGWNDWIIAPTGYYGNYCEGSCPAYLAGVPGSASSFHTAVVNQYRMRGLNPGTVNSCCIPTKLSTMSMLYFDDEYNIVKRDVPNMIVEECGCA

Human GDF10 = biological target: T5, Human GDF10 (human, UniProt P55107 369-478); test: Octet BLI, IgG, avid
T5 sequence (looked up): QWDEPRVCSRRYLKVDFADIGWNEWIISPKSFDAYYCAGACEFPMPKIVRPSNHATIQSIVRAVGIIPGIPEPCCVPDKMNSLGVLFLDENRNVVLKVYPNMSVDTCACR

Human GDF11 = Human GDF11 (human, UniProt O95390 299-407); test: Octet BLI, IgG, avid
Sequence of Human GDF11 (O95390 299-407 limits assumed): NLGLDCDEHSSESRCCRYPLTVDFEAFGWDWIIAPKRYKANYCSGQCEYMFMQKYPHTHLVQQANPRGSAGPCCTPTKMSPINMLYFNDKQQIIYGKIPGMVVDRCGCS

BMP9 = biological target: T6, BMP9 (UniProt Q9UK05 320-429); test: Octet BLI, IgG, avid
T6 sequence (looked up): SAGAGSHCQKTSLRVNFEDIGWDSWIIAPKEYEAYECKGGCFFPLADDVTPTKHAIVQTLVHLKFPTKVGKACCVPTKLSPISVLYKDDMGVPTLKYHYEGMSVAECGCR

Human GDNF = biological target: T7, Human GDNF (human, UniProt P39905 78-211); test: Octet BLI, IgG, avid
T7 sequence (looked up): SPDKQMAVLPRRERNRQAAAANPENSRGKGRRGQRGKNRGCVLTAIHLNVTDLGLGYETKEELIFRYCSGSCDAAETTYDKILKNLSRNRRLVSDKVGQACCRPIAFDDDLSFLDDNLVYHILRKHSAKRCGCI

Human Activin A Fc = biological target: T8, Human Activin A Fc (human, UniProt P03970 309-424 (pig entry)); test: Octet BLI, IgG, avid
T8 construct: also called human Activin A-Fc fusion; human Activin A-Fc antigen; not shown: Fc part
T8 sequence: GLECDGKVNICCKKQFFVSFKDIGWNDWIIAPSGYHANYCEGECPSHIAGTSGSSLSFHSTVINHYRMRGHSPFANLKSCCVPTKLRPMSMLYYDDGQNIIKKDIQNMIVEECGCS
Experimental: ForteBio affinity measurements were performed on an Octet HTX generally as previously described (see, e.g., Estep et al, Mabs 5(2), 270-278 (2013)). Briefly, ForteBio affinity measurements were performed by loading IgGs on-line onto AHC sensors. Sensors were equilibrated off-line in assay buffer for 30 min and then monitored on-line for 60 seconds for baseline establishment. Sensors with loaded IgGs were exposed to 100 nM antigen for 3 minutes, and afterwards were transferred to assay buffer for 3 min for off-rate measurement. All kinetics were analyzed using the 1:1 binding model.
Binding affinity and epitope binning assays were performed with a ForteBio instrument as described herein.

Activin B [3] = biological target: T4, Activin B; test: cell-based or functional assay

B1: anti-Activin A antibody Clone A (IgG) (antibody, V domains shown)
VH: QVQLVQSGAEVKKPGASVKVSCKASGYTFTGYYMHWVRQAPGQGLEWMGSINPSSGGTNYAQKFQGRVTMTTDTSTSTAYMELRSLRSDDTAVYYCARARDIAAAGLGAFDYWGQGTLVTVSS
VL: EIVLTQSPGTLSLSPGERATLSCRASQSVRSSYLAWYQQKPGQAPRLLIYGASSRATGIPDRFSGSGSGTDFTLTISRLEPEDFAVYYCQQYVSYPRTFGGGTKVEIKR
notes: IgG format; also called Antibody A
- Activin A-ActRIIB SMAD IC50 pM [1]: 324 pM and 282 pM and 361 pM
- binding result (Human GDF8): no binding (tested: 100 nM antigen)
- binding result (BMP10): no binding (tested: 100 nM antigen)
- binding result (GDF15 Fc): no binding (tested: 100 nM antigen)
- binding result (Activin B [2]): no binding (tested: 100 nM antigen)
- binding result (Human GDF10): no binding (tested: 100 nM antigen)
- binding result (Human GDF11): no binding (tested: 100 nM antigen)
- binding result (BMP9): no binding (tested: 100 nM antigen)
- binding result (Human GDNF): no binding (tested: 100 nM antigen)
- Kd (Human Activin A Fc): 0.81 nM
- Activin B-ActRIIB SMAD IC50 pM (Activin B [3]): > 100000 pM

B2: anti-Activin A antibody Clone E (IgG) (antibody, V domains shown)
VH: QVQLVQSGAEVKKPGASVKVSCKASGYTFHGYNMHWVRQAPGQGLEWMGSINPYSGYTIYAQKFQGRVTMTRDTSISTAYMELSRLRSDDTAVYYCARARDIAAAGLGAFDYWGQGTLVTVSS
VL: EIVLTQSPGTLSLSPGERATLSCRASQSVRSSYLAWYQQKPGQAPRLLIYGASSRATGIPDRFSGSGSGTDFTLTISRLEPEDFAVYYCQQYVSYPRTFGGGTKVEIKR
notes: IgG format; also called Antibody E
- Activin A-ActRIIB SMAD IC50 pM [1]: 16.5 pM
- binding result (Human GDF8): no binding (tested: 100 nM antigen)
- binding result (BMP10): no binding (tested: 100 nM antigen)
- binding result (GDF15 Fc): no binding (tested: 100 nM antigen)
- binding result (Human GDF10): no binding (tested: 100 nM antigen)
- Kd (Human GDF11): 27.3 nM
- binding result (BMP9): no binding (tested: 100 nM antigen)
- binding result (Human GDNF): no binding (tested: 100 nM antigen)
- Kd (Human Activin A Fc): 0.551 nM
- Activin B-ActRIIB SMAD IC50 pM (Activin B [3]): 83600 pM

B3: anti-Activin A antibody Clone H (IgG) (antibody, V domains shown)
VH: QVQLVQSGAEVKKPGASVKVSCKASGYTFTGYHIHWVRQAPGQGLEWMGHISAYSGTTNYAQKLQGRVTMTTDTSTSTAYMELRSLRSDDTAVYYCARARDIAAAGLGAFDYWGQGTLVTVSS
VL: EIVLTQSPGTLSLSPGERATLSCRASQSVRSSYLAWYQQKPGQAPRLLIYGASSRATGIPDRFSGSGSGTDFTLTISRLEPEDFAVYYCQQYSNYPRTFGGGTKVEIKR
notes: IgG format; also called Antibody H
- Activin A-ActRIIB SMAD IC50 pM [1]: 36.9 pM
- binding result (Human GDF8): no binding (tested: 100 nM antigen)
- binding result (BMP10): no binding (tested: 100 nM antigen)
- binding result (GDF15 Fc): no binding (tested: 100 nM antigen)
- binding result (Human GDF10): no binding (tested: 100 nM antigen)
- binding result (Human GDF11): no binding (tested: 100 nM antigen)
- binding result (BMP9): no binding (tested: 100 nM antigen)
- binding result (Human GDNF): no binding (tested: 100 nM antigen)
- Kd (Human Activin A Fc): 0.666 nM
- Activin B-ActRIIB SMAD IC50 pM (Activin B [3]): > 100000 pM

B4: anti-Activin A antibody Clone K (IgG) (antibody, V domains shown)
VH: QVQLVQSGAEVKKPGSSVKVSCKASGGTSSSYAISWVRQAPGQGLEWMGYIIPAFGTANYAQKFQGRVTITADESTSTAYMELSSLRSEDTAVYYCARPVRTYPLGKYFYHWGQGTLVTVSS
VL: EIVLTQSPATLSLSPGERATLSCRASQSVSSYLAWYQQKPGQAPRLLIYDASNRATGIPARFSGSGSGTDFTLTISSLEPEDFAVYYCQQDSIFPPYTFGGGTKVEIKR
notes: IgG format; also called Antibody K
- binding result (Human GDF8): no binding (tested: 100 nM antigen)
- binding result (BMP10): no binding (tested: 100 nM antigen)
- binding result (GDF15 Fc): no binding (tested: 100 nM antigen)
- binding result (Activin B [2]): no binding (tested: 100 nM antigen)
- binding result (Human GDF10): no binding (tested: 100 nM antigen)
- binding result (Human GDF11): no binding (tested: 100 nM antigen)
- binding result (BMP9): no binding (tested: 100 nM antigen)
- binding result (Human GDNF): no binding (tested: 100 nM antigen)
- Kd (Human Activin A Fc): 0.43 nM
- Activin B-ActRIIB SMAD IC50 pM (Activin B [3]): 30700 pM

Source: patent US20260265358A1 (BYOMASS, published 2026)
